Article PMC3764172

What follows are sequences tested against T1, PGN_0753 (HaeR) response regulator, His6-tagged (Porphyromonas gingivalis ATCC 33277) (UniProt B2RIS7) (assay: EMSA).
T1 sequence: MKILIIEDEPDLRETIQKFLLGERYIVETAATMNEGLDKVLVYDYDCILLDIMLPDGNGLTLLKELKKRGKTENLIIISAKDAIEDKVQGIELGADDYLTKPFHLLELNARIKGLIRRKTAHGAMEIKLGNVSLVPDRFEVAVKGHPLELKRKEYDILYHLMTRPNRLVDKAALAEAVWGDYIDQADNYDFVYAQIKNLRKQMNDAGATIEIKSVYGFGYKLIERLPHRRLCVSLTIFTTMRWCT

Sequence | binding
CATTTTGATGAAATTAGAATATGATTTTACTGTGTAGTACCCCTTCTGTATTTATGCATTATAAAGTCTTCTTGGGAGACAAAATTCACATAGAAACCGAAAGAAATACCACAATCGCAAATATATGCACTTTTCCTTTAAACGCGAATCAAAATATGCATAATATATTGCCCAAAAGCTGTCATTCGGATTGATTGATGGCCTCATATTGGGTTTGCA (double strand) [rgpA (PGN_1970) promoter] | binds
CCCTTGTCGCTTATATTGAAAACATGTTCTTTATAATCCGATACTCTTCTTAAATCGAATTTTTTCTCTAAATTGCGCCGCAACAAAACTCCTTGAGAAAAGTACCAATAGAAATAGAAGGTAGCATTTTGCCTTTAAATTCCTTTTCTTTTCTTGGATTGTTCTTGAAATGAATCTTATTTGTGGATCTTTTTTGTTTTTTTAACCCGGCCGTGGTTCTCTGAATCACGACCATAAATTGTTTTAAAGT (double strand) [kgp (PGN_1728) promoter] | binds
CGTATCCGGGTTATACGATCTGTCGTTTGGATATTGAAAATCATTTCTATCGGAACTATACGCTCCATATCGGTGCGGAGAACCTGTTCGATTATAAACCCAAAGCATTGGCATTCAATTCCCCGACATCACCCGGACGTATCATATACGGGTTGGTTCGGATCACTTTCTAATACGACTTATTTGCAACAGAAATATAATTCGCCACG (double strand) [hmuS upstream region] | binds
TAAGTGATTGAAAGACTTCGTTTGCTGAGATTCGAGCAAATCGTCTTGGGACAAAGATATAAAAAAGTGCCACCGAATTTGCACCTCGTCCCCAAAACACAGGCGTAAAATATCCGCACATCCCGGGACTGCAAAGGGAGAGCATGCTATTTCAGGAAAAATTCAGTTTTACCATGTTATATTTGTAAAAGAAGATCAATCCAAACAGGGCTATCCAGATG (double strand) [haeR (PGN_0753) promoter] | binds
TAGCGTCATTCTTTTCATAGACTTTTCTTTTGCGTTAAACTTAAAATTATTACTGTTATGTTGTTTTCTTTTCTTCTCCGGTTTTACCCTAACCAAGGGAAGTCTCAAAAAGCCGCTACCGGCGTTAGACACAAGTCACGAAACTTCCACAACTGTCCTATGATACGGACAGCCACAAAACTAAATAAAAAAATGCAACCAGACTAATCCTATTATCC (double strand) [ragA (PGN_0293) promoter] | binds
